In paper PMC3046128, “Systematic Two-Hybrid and Comparative Proteomic Analyses Reveal Novel Yeast Pre-mRNA Splicing Factors Connected to Prp19” (PLoS ONE, 2011):

What was measured:
[1] = target: T1, full length S. cerevisiae Prp19 (S. cerevisiae), P32523; assay: AUC; sedimentation velocity, 30,000 rpm, 22°C, 280 nm; Sedfit c(s) analysis; ScPrp19 constant with His6-ScUrn1 at 1∶1 or 1∶2.5 molar ratio; settings: remark: other sources report otherwise
T1 chain: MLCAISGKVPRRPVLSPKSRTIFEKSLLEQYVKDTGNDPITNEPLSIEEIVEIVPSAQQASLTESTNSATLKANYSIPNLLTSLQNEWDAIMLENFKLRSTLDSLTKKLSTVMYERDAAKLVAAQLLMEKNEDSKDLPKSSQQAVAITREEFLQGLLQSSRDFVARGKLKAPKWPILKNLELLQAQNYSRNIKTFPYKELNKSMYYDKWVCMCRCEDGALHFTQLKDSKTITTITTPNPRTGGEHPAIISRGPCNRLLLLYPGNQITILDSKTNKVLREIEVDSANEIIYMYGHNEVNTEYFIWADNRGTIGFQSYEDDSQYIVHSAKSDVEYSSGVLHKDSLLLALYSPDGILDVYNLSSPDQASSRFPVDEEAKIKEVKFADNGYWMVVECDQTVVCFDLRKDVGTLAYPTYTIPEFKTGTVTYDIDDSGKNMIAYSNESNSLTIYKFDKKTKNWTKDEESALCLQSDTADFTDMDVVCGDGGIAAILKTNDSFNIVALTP

[2] = target: T2, His6-ScPrp19(144–503) (S. cerevisiae, UniProt P32523 144-503); assay: pull-down; purified soluble MBP fusions incubated one hour at 4°C with Ni-NTA beads coated with His6-ScPrp19(144–503); washed; SDS-PAGE and Coomassie staining; settings: both partners purified
T2 construct: Prp19, S. cerevisiae, amino acids 144–503; also called His6-Prp19(144–503); ScPrp19 WD40 domain; source: E. coli BL21 (pET15b), purified (Ni-NTA agarose)
T2 sequence (looked up): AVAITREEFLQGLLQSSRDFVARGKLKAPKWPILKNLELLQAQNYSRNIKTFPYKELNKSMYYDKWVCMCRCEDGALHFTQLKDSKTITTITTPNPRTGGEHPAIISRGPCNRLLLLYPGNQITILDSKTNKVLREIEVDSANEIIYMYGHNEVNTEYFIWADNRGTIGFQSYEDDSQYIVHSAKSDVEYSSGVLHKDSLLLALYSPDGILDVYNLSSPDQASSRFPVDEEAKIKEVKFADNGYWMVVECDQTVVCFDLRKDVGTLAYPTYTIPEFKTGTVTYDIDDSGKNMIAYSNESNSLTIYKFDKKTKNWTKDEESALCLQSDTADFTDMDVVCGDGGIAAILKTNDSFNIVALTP

[3] = target: T3, S. pombe Prp19-Myc13 (S. pombe, UniProt O14011 1-488); assay: co-IP; anti-HA immunoprecipitate from S. pombe cwf7-HA3 prp19-Myc13 prp17-Myc13 cells; anti-Myc immunoblot quantified on an Odyssey instrument; settings: partners not purified
T3 construct: Prp19 (Cwf8), S. pombe, open reading frame tagged at the 3' end of the endogenous locus; also called SpPrp19; Cwf8; source: S. pombe, tagged at the endogenous locus, in lysate; not shown: Myc13, C-terminal, kept
T3 sequence (looked up): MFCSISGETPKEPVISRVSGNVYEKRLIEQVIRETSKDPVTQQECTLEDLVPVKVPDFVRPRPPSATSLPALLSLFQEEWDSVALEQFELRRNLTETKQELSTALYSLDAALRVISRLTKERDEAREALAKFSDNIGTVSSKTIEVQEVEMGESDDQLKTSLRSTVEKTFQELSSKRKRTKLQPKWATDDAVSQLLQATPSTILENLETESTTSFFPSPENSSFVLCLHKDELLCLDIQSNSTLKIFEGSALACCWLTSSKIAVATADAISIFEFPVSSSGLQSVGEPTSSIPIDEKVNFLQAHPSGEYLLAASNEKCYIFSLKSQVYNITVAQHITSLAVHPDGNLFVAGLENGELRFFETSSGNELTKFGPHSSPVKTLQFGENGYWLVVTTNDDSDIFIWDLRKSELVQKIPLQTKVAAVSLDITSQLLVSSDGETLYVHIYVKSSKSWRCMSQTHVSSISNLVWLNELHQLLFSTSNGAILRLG

[4] = target: T4, full length S. cerevisiae Prp19 (S. cerevisiae, UniProt P32523 1-503); assay: AUC; sedimentation velocity, 30,000 rpm, 22°C, 280 nm; Sedfit c(s) analysis; ScPrp19 constant with His6-ScUrn1 at 1∶1 or 1∶2.5 molar ratio; settings: both partners purified
T4 construct: Prp19, S. cerevisiae, full length (mass 58.6 kDa); no tag is printed for Prp19 in this experiment; also called ScPrp19; source: E. coli BL21 (pETDuet-1), co-expressed with His6-ScUrn1, purified (Ni-NTA agarose, heparin agarose, gel filtration)
T4 sequence (looked up): T1 chain

B1: full length S. cerevisiae Prp19, P32523 1-503 (natural protein)
chain: T1 chain
[1]
  stoichiometry N: 4

B2: MBP-ScPrp17(1–140) (domain or fragment, S. cerevisiae, UniProt P40968 1-140, looked up)
chain: MGLVDGYDTSSDSDLNFDEGKSVHEKKNGNLHEDTSYEPSSNNIHKRKSHFTKSELKRRRKTRKGDGPWGSWSSSDDETSQASETQKEDQDIFVHALAEDNLDSEQIEVEEVSHFYGKSEKDYQGRGYLYPPNDVDVDLR
notes: Prp17/Cdc40, S. cerevisiae, residues 1–140; source: E. coli BL21 (pMAL-c2X), purified (amylose beads)
[2]
  binding result: binds

B3: MBP-ScUrn1(165–274) (domain or fragment, S. cerevisiae, UniProt Q06525 165-274, looked up)
chain: TGLVSGYGSSSGEEDEEEDEEEDEENEEQIVNQDISIIDDLNRIDTDDIDERNIFFELFDRYKLDKFSTWSLQSKKIENDPDFYKIRDDTVRESLFEEWCGERSGNATAE
notes: source: E. coli BL21 (pMAL-c2X), purified (amylose beads)
[2]
  binding result: binds

B4: S. pombe Prp17-Myc13 (natural protein, UniProt O43071 1-558, looked up)
chain: MLVANYSSDSEEQENSQSPNIQPLLHTENLAPAVVDNVKDDLIVSKGGNSRELARNVPVNEMVQPALGPANPFVTKEQDSIKNSITGYAEREYVPNFVFNQEYYANTHAIYGKRNFDDNEATTSTDLKRKSQKIKERREDPGDPSILEGDGAYKGPWAGYGSEQSSSPLEYSEYEEVESLDVKSEKDTESNNLGQNELLKEQLATPEVETHRSKEETILHKDRLFDYQNRSYMHVPNDVGINLSEEPGEQTCYIPKKHIFTWKGHTKGISCLRFFPISGHLLLSGSMDNQIKIWEVYHDRSLLRTFQGHARPIRDLSFSQDGRSFLSTSFDKTIKLWDTELGKCLNCFNSDRLTNCVKFQVDPDKPNEFLAGTADKRILQFDIRSPDIVQAYDHHLGGINSITFLENGKRFVTTSDDSSMRFWEYGTPVPIKFVADIAMHSMPRVALRPNGKSIACQSLDNCIYVYSAYEKYRQNKKKVFKGYSCSGYSLEVGFSPDGRFVFSGDSSGNACFWDWKTCKLMAKLPAHSGPVQSMAFHPQETSKVATSSIVDGSIKYWD
notes: Prp17, S. pombe, open reading frame tagged at the 3' end of the endogenous locus; also called SpPrp17; source: S. pombe, tagged at the endogenous locus, in lysate; not shown: Myc13, C-terminal, kept
[3]
  stoichiometry N: 1.05 ratio of Myc-tagged proteins

B5: His6-ScUrn1 (natural protein, S. cerevisiae, UniProt Q06525 1-465, looked up)
chain: MRGEWQEFKTPAGKKYYYNKNTKQSRWEKPNLKKGSNLESNAKESQTERKPTFSLELVNGWHLIIYNDGTKLYFNDDSKEFKNDISQEDDSRCRSLIESLDKEKLVLLIGVARGYTMREEDIDKILESCNEEIHLFKRNQDEVERKDEISEEAGDVKSPLQESHTGLVSGYGSSSGEEDEEEDEEEDEENEEQIVNQDISIIDDLNRIDTDDIDERNIFFELFDRYKLDKFSTWSLQSKKIENDPDFYKIRDDTVRESLFEEWCGERSGNATAEESDSEDNSEDDSEVLEPTKYHYLAQIVANAGTIAPDTIPQDIRKQQKALYKAYKIKEYIPSKRDQDKFVSQLLFYYKTFDLEQRKEIFCDCLRDHERDFTGAVESLRQDKELIDRWQTLLKAPADSSSIEDILLSIEHRCCVSPIVVTEPRYYVVGILEKTVVWVRWLAAEVGPSSRFTPVGAGNEPINPE
notes: Urn1, S. cerevisiae (His6-ScUrn1 mass 55.1 kDa); the printed mass fits the whole protein; also called His6-Urn1; source: E. coli BL21 (pETDuet-1), co-expressed with ScPrp19, purified (Ni-NTA agarose, heparin agarose, gel filtration)
[4]
  stoichiometry N: 1 Urn1 per Prp19 tetramer
